# Values joined by “and” are separate entries in the source; they are usually repeats but may differ in a detail not shown here. Identical values can stand only once. No end group written: not given here. NO3 = not defined here
# T1: DegP PDZ1 domain (DegP^261-354) (E. coli K12, UniProt P0C0V0 287-380)
# T1 construct: DegP protease, E. coli K12, PDZ1 domain, residues 261-354; numbers count on: the mature protein; [U-15N]-labelled when observed in NMR titrations; also called pDS10; source: E. coli BL21 Star (λ DE3), purified (Ni2+ Sepharose, SENP1 cleavage, Superdex 75 Increase SEC); not shown: His6-SUMO, N-terminal, cleaved
# T1 sequence (looked up): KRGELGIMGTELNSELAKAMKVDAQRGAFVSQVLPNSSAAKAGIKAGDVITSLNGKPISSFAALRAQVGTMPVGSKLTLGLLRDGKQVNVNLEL
# T2: biotinylated PDZ1 domain (E. coli K12, UniProt P0C0V0 287-380, biotin (EZ-Link NHS-PEG4-Biotin, molar ratio 1:1 at pH 6.0 to ensure preferential labeling of the N-terminal α-amino group))
# T2 construct: DegP protease, E. coli K12, PDZ1 domain, residues 261-354; numbers count on: the mature protein; m5 after biotinylation; immobilised on streptavidin biosensors; source: E. coli BL21 Star (λ DE3), purified, then biotinylated (EZ-Link NHS-PEG4-Biotin); not shown: His6-SUMO, N-terminal, cleaved
# T2 sequence (looked up): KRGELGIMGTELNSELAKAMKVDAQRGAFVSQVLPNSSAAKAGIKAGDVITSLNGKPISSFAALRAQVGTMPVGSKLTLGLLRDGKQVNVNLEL
# T3: DegP^S210A,Y444A (E. coli K12), P0C0V0
# T3 chain: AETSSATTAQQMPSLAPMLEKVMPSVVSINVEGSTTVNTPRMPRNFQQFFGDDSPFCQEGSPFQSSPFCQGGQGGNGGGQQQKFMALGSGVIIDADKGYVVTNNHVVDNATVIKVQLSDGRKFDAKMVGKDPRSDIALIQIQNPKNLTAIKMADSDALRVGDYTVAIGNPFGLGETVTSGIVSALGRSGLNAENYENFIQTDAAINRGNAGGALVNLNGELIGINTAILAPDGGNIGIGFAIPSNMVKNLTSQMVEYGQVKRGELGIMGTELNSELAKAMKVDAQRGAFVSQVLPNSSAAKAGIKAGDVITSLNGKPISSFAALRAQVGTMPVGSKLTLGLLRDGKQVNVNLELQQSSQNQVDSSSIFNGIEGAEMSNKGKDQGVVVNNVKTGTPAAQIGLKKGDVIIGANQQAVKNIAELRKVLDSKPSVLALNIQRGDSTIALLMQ
# B1: DegP PDZ1-PDZ2 domain construct (DegP^261-448) (domain or fragment, E. coli K12, UniProt P0C0V0 287-474, looked up)
# chain: KRGELGIMGTELNSELAKAMKVDAQRGAFVSQVLPNSSAAKAGIKAGDVITSLNGKPISSFAALRAQVGTMPVGSKLTLGLLRDGKQVNVNLELQQSSQNQVDSSSIFNGIEGAEMSNKGKDQGVVVNNVKTGTPAAQIGLKKGDVIIGANQQAVKNIAELRKVLDSKPSVLALNIQRGDSTIYLLMQ
# notes: DegP protease, E. coli K12, PDZ1-PDZ2 domains, residues 261-448; numbers count on: the mature protein; Isotope-labelled for NMR; also called PDZ1-PDZ2 bidomain; pDS12; source: E. coli BL21 Star (λ DE3), purified (Ni2+ Sepharose, SENP1 cleavage, Superdex 75 Increase SEC); not shown: His6-SUMO, N-terminal, cleaved
# How the values were obtained:
# [1] = target: T1, DegP PDZ1 domain (DegP^261-354); test: BLI; Octet RED96, 25°C; biotinylated PDZ2 on streptavidin biosensors, PDZ1 as analyte; steady-state analysis; 0.1% BSA, 0.05% Tween 20; association 30 s, dissociation 40 s; conditions: both partners purified
# biotinylated PDZ1 domain = target: T2, biotinylated PDZ1 domain; test: BLI; Octet RED96, 25°C; biotinylated PDZ1 on streptavidin biosensors, PDZ2 as analyte; initial tests; conditions: both partners purified
# [2] = target: T3, DegP^S210A,Y444A (E. coli K12), P0C0V0; test: SEC; full-length DegP^S210A variants alone; 8°C stated for DegP^S210A,Y444A; trimer and hexamer species; conditions: remark: other sources report otherwise
# [3] = target: T3, DegP^S210A,Y444A (E. coli K12), P0C0V0; test: NMR pulsed field gradient diffusion (13C-methyl-filtered); [U-2H, Ile-δ1-13CH3]-DegP samples at 25°C; NMR buffer 25 mM potassium phosphate, 1 mM EDTA, 1 mM TCEP pH 7.0; oligomeric state from viscosity- and temperature-corrected translational diffusion coefficient against a calibration curve; hexamer to trimers; conditions: remark: other sources report otherwise
# [4] = target: the molecule itself; test: NMR pulsed field gradient diffusion (13C-methyl-filtered); DegP^S210A,M280I, temperature series (fig. S1, K and L); hexamer to trimers
# [5] = target: the molecule itself; test: NMR pulsed field gradient diffusion (13C-methyl-filtered); [U-2H, Ile-δ1-13CH3]-DegP samples at 43° and 50°C; NMR buffer pH 7.0; hexamer to trimers
# [6] = target: the molecule itself; test: NMR pulsed field gradient diffusion (13C-methyl-filtered); [U-2H, Ile-δ1-13CH3]-DegP samples at 25°C; NMR buffer 25 mM potassium phosphate, 1 mM EDTA, 1 mM TCEP pH 7.0; oligomeric state from viscosity- and temperature-corrected translational diffusion coefficient against a calibration curve; hexamer to trimers
# [7] = target: the molecule itself; test: SEC; full-length DegP^S210A variants alone; 8°C stated for DegP^S210A,Y444A; trimer and hexamer species
# [8] = target: the molecule itself; test: NMR line broadening and peak intensities ([13C,1H] spectra of side chains); [U-13C,15N]-PDZ1-PDZ2 alone at 25° to 50°C; Y444 Cα and ring resonances, M280 ε-methyl open and locked states
# [9] = target: B1; test: NMR titration; substrates (p23, β-casein, nonactivating reporter peptide) added to the DegP PDZ domains (fig. S12); β-casein up to half equimolar ratio; conditions: both partners purified
binder,measurement,setting,value
"biotinylated PDZ2 domain (domain or fragment, E. coli K12, UniProt P0C0V0 385-474, looked up, biotin (EZ-Link NHS-PEG4-Biotin, molar ratio 1:1 at pH 6.0 to ensure preferential labeling of the N-terminal α-amino group), DegP protease, E. coli K12, PDZ2 domain, residues 359-448; numbers count on: the mature protein; m6 after biotinylation; immobilised on streptavidin biosensors; source: E. coli BL21 Star (λ DE3), purified, then biotinylated (EZ-Link NHS-PEG4-Biotin); not shown: His6-SUMO, N-terminal, cleaved) QNQVDSSSIFNGIEGAEMSNKGKDQGVVVNNVKTGTPAAQIGLKKGDVIIGANQQAVKNIAELRKVLDSKPSVLALNIQRGDSTIYLLMQ",Kd,[1],7.8 ± 0.9 µM
"DegP PDZ2 domain (DegP^359-448) (domain or fragment, E. coli K12, UniProt P0C0V0 385-474, looked up, DegP protease, E. coli K12, PDZ2 domain, residues 359-448; numbers count on: the mature protein; [U-15N]-labelled when observed in NMR titrations; also called pDS11; source: E. coli BL21 Star (λ DE3), purified (Ni2+ Sepharose, SENP1 cleavage, Superdex 75 Increase SEC); not shown: His6-SUMO, N-terminal, cleaved) QNQVDSSSIFNGIEGAEMSNKGKDQGVVVNNVKTGTPAAQIGLKKGDVIIGANQQAVKNIAELRKVLDSKPSVLALNIQRGDSTIYLLMQ",fold weakening of Kd against PDZ1 on biotinylated PDZ2,biotinylated PDZ1 domain,~10 fold
"DegP^S210A,Y444A, P0C0V0 27-474 (enzyme) AETSSATTAQQMPSLAPMLEKVMPSVVSINVEGSTTVNTPRMPRNFQQFFGDDSPFCQEGSPFQSSPFCQGGQGGNGGGQQQKFMALGSGVIIDADKGYVVTNNHVVDNATVIKVQLSDGRKFDAKMVGKDPRSDIALIQIQNPKNLTAIKMADSDALRVGDYTVAIGNPFGLGETVTSGIVSALGRSGLNAENYENFIQTDAAINRGNAGGALVNLNGELIGINTAILAPDGGNIGIGFAIPSNMVKNLTSQMVEYGQVKRGELGIMGTELNSELAKAMKVDAQRGAFVSQVLPNSSAAKAGIKAGDVITSLNGKPISSFAALRAQVGTMPVGSKLTLGLLRDGKQVNVNLELQQSSQNQVDSSSIFNGIEGAEMSNKGKDQGVVVNNVKTGTPAAQIGLKKGDVIIGANQQAVKNIAELRKVLDSKPSVLALNIQRGDSTIALLMQ",stoichiometry N,[2],3 and 6
same,stoichiometry N,[3],3
"DegP^S210A,M280I (enzyme, E. coli K12, UniProt P0C0V0 27-474, looked up, numbers count on: the mature protein) AETSSATTAQQMPSLAPMLEKVMPSVVSINVEGSTTVNTPRMPRNFQQFFGDDSPFCQEGSPFQSSPFCQGGQGGNGGGQQQKFMALGSGVIIDADKGYVVTNNHVVDNATVIKVQLSDGRKFDAKMVGKDPRSDIALIQIQNPKNLTAIKMADSDALRVGDYTVAIGNPFGLGETVTSGIVSALGRSGLNAENYENFIQTDAAINRGNAGGALVNLNGELIGINTAILAPDGGNIGIGFAIPSNMVKNLTSQMVEYGQVKRGELGIMGTELNSELAKAIKVDAQRGAFVSQVLPNSSAAKAGIKAGDVITSLNGKPISSFAALRAQVGTMPVGSKLTLGLLRDGKQVNVNLELQQSSQNQVDSSSIFNGIEGAEMSNKGKDQGVVVNNVKTGTPAAQIGLKKGDVIIGANQQAVKNIAELRKVLDSKPSVLALNIQRGDSTIYLLMQ",binding result,[4],binds
"DegP^S210A (full-length DegP, active site serine mutated) (enzyme, E. coli K12, UniProt P0C0V0 27-474, looked up, numbers count on: the mature protein; Isotope-labelled for NMR ([U-2H,15N] or [U-2H, Ile-d1-13CH3]); also called full-length DegP^S210A) AETSSATTAQQMPSLAPMLEKVMPSVVSINVEGSTTVNTPRMPRNFQQFFGDDSPFCQEGSPFQSSPFCQGGQGGNGGGQQQKFMALGSGVIIDADKGYVVTNNHVVDNATVIKVQLSDGRKFDAKMVGKDPRSDIALIQIQNPKNLTAIKMADSDALRVGDYTVAIGNPFGLGETVTSGIVSALGRSGLNAENYENFIQTDAAINRGNAGGALVNLNGELIGINTAILAPDGGNIGIGFAIPSNMVKNLTSQMVEYGQVKRGELGIMGTELNSELAKAMKVDAQRGAFVSQVLPNSSAAKAGIKAGDVITSLNGKPISSFAALRAQVGTMPVGSKLTLGLLRDGKQVNVNLELQQSSQNQVDSSSIFNGIEGAEMSNKGKDQGVVVNNVKTGTPAAQIGLKKGDVIIGANQQAVKNIAELRKVLDSKPSVLALNIQRGDSTIYLLMQ",stoichiometry N,[5],3
same,stoichiometry N,[6],6
"DegP^S210A,M280A (enzyme, E. coli K12, UniProt P0C0V0 27-474, looked up, numbers count on: the mature protein) AETSSATTAQQMPSLAPMLEKVMPSVVSINVEGSTTVNTPRMPRNFQQFFGDDSPFCQEGSPFQSSPFCQGGQGGNGGGQQQKFMALGSGVIIDADKGYVVTNNHVVDNATVIKVQLSDGRKFDAKMVGKDPRSDIALIQIQNPKNLTAIKMADSDALRVGDYTVAIGNPFGLGETVTSGIVSALGRSGLNAENYENFIQTDAAINRGNAGGALVNLNGELIGINTAILAPDGGNIGIGFAIPSNMVKNLTSQMVEYGQVKRGELGIMGTELNSELAKAAKVDAQRGAFVSQVLPNSSAAKAGIKAGDVITSLNGKPISSFAALRAQVGTMPVGSKLTLGLLRDGKQVNVNLELQQSSQNQVDSSSIFNGIEGAEMSNKGKDQGVVVNNVKTGTPAAQIGLKKGDVIIGANQQAVKNIAELRKVLDSKPSVLALNIQRGDSTIYLLMQ",stoichiometry N,[7],3 and 6
B1,ratio of open to locked state of M280 at 37°C,[8],1
same,stoichiometry N,[8],2
"Abz-GNWVSAAKFETYR(NO3)SKNTQDYGILQI (reading uncertain; also: printed as Abz-GNWVSAAKFETYR^NO3^SKNTQDYGILQI, The superscript probably marks a nitrotyrosine quencher at Y12; also called fluorescent p23 peptide; source: synthetic peptide, bought: GenScript) [p23 peptide (Abz-GNWVSAAKFETYR^NO3SKNTQDYGILQI)]",binding result,[9],binds

# From paper PMC8654288, “Structural basis of DegP protease temperature-dependent activation” (Science Advances, 2021)
